Assay results: patent US11491206B1, “Compositions and methods for the treatment of trail-resistant cancer” (Duke University, priority 2018, dated 2022)
Values joined by “and” are separate entries in the source; they are usually repeats but may differ in a detail not shown here. Identical values can stand only once.

Columns and labels:
[1] = tested on: HCT116, HCT15, Colo205, DLD-1, and Lovo; assay: Single-agent cytotoxicity (MTT) in TRAIL-sensitive CRC cell lines; format: cell-based, human
Experimental: (§1) For single-agent cytotoxicity evaluation, DRA and ELP-DRA fusion proteins were tested in vitro using a colorimetric formazan assay (MTT) as follows. […] The cells were then treated with 10 μL additional media containing a serial dilution of the drug(s) of interest. All treatments were done in triplicate. […] The inhibition of cell viability was determined using measurements of the absorbance at 490 nm, which is the absorbance maximum of the formazan product. The dose-response curves were generated by plotting inhibition as a function of compound concentration.

CRC247 = assay: Single-agent cytotoxicity in patient-derived CRC247; format: cell-based, human
Experimental: as §1

[2] = in vivo; cited from earlier work
CRC12x = assay: Single-agent cytotoxicity in patient-derived CRC12x; format: cell-based, human
Experimental: as §1

HT29 cells = assay: Single-agent cytotoxicity (MTT) in HT29; format: cell-based, human
Experimental: as §1

RKO cells [3] = assay: Single-agent cytotoxicity (MTT) in RKO; format: cell-based, human
Experimental: as §1

CRC119 = assay: Single-agent cytotoxicity in patient-derived CRC119; format: cell-based, human; settings: CRC119s
Experimental: as §1

RKO cells [4] = assay: Flow cytometry Annexin V apoptosis quantification in RKO; format: cell-based, human; settings: for % positive Annexin V+: single replicate, listed as SA
Experimental: Flow Cytometry for Annexin-V Apoptosis Quantification. Cells were seeded in six-well plates overnight. The next day, cells were treated with the indicated amount of drug(s) or vehicle control (DMSO). Incubation time was 15 h for etoposide or 48 h for DRA alone, or DRA with sensitizers. To prepare samples for flow cytometry, each well of cells was washed twice with ice-cold PBS and resuspended in 1× annexin V binding buffer (10 mM HEPES, 140 mM NaCl, 2.5 mM CaCl2, pH 7.4) BD Biosciences). Allophycocyanin (APC)-conjugated Annexin V was used to measure surface exposure of phosphatidylserine and 7-aminoactinomycin D (7-AAD) was used as a viability probe (BD Biosciences). Cell samples were analyzed at 20,000 counts/sample using BD FACSVantage SE.

T84 = assay: Single-agent cytotoxicity (MTT) in T84; format: cell-based, human
Experimental: as §1

mouse death receptor = mouse death receptor (Mus musculus, UniProt Q9QZM4); settings: previous studies; cited from earlier work
Chain of mouse death receptor (Q9QZM4 53-381): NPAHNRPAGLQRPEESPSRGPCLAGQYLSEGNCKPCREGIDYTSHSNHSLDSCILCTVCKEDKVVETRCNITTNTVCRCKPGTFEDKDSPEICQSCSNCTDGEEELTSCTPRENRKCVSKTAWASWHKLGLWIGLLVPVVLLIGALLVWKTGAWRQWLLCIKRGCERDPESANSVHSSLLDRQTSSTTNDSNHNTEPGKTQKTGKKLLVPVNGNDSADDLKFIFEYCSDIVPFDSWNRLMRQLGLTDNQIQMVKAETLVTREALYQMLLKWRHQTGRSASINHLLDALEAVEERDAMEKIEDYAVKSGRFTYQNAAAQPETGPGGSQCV

B1: DRA: hexameric protein of Tn3 fibronectin type III domains (SEQ ID NO: 1) binding DR5, joined by glycine-serine linkers (protein)
chain: GAIEVKDVTDTTALITWAKPWVDPPPLWGCELTYGIKDVPGDRTTIDLQQKHTAYSIGNLKPDTEYEVSLICFDPYGMRSKPAKETFTTGGGGSGGGGSGGGGSGAIEVKDVTDTTALITWAKPWVDPPPLWGCELTYGIKDVPGDRTTIDLQQKHTAYSIGNLKPDTEYEVSLICFDPYGMRSKPAKETFTTGGGGSGGGGSGGGGSGAIEVKDVTDTTALITWAKPWVDPPPLWGCELTYGIKDVPGDRTTIDLQQKHTAYSIGNLKPDTEYEVSLICFDPYGMRSKPAKETFTTGGGGSGGGGSGGGGSGAIEVKDVTDTTALITWAKPWVDPPPLWGCELTYGIKDVPGDRTTIDLQQKHTAYSIGNLKPDTEYEVSLICFDPYGMRSKPAKETFTTGGGGSGGGGSGGGGSGAIEVKDVTDTTALITWAKPWVDPPPLWGCELTYGIKDVPGDRTTIDLQQKHTAYSIGNLKPDTEYEVSLICFDPYGMRSKPAKETFTTGGGGSGGGGSGGGGSGAIEVKDVTDTTALITWAKPWVDPPPLWGCELTYGIKDVPGDRTTIDLQQKHTAYSIGNLKPDTEYEVSLICFDPYGMRSKPAKETFTTGGGGSGGGGSGGGGSHHHHHHHH
increase in potency of DRA compared to TRAIL (T/D fold, EC50-TRAIL/EC50-DRA) ([1]; TRAIL-sensitive cell lines): 70-1700 times | EC50 ([1]; all tested TRAIL-sensitive cell lines): picomolar range | cytotoxicity (CRC247): highly resistant | half-life [2]: approximately 36 min | EC50 (CRC12x): 0.0098 nM | cytotoxicity (HT29 cells): induces cytotoxicity | EC50 (RKO cells [3]): > 100 nM | EC50 (CRC119): 0.0261 nM | Average % positive Annexin V+ (RKO cells [4]; 0.5 pM SA): 4.90% | % positive Annexin V+ (RKO cells [4]; 0.5 pM SA): 5.32% and 5.86% and 3.53% | Average % positive Annexin V+ (RKO cells [4]; 1 pM SA): 6.01% | % positive Annexin V+ (RKO cells [4]; 1 pM SA): 6.97% and 5.22% and 5.85% | cytotoxicity (T84): induces cytotoxicity | interaction with mouse death receptor (mouse death receptor): no interaction

B2: DRA monomer: single Tn3 type III fibronectin domain engineered to bind DR5 (protein)
chain: GAIEVKDVTDTTALITWAKPWVDPPPLWGCELTYGIKDVPGDRTTIDLQQKHTAYSIGNLKPDTEYEVSLICFDPYGMRSKPAKETFTT
induction of cell death ([1]; sensitive cell lines): do not induce cell death
